Here are results for 18 molecules from patent publication US20120172295A1 (INDIANA UNIVERSITY RESEARCH AND TECHNOLOGY, published 2012).

Like-named read-outs stand apart in the source and are kept apart here. Starred links: 1 amine or outer side, 2 acyl side, 3 side chain; linkers in the order of their positions; H or OH if unused. Positions of bridges follow the written chain, without caps; N, C: chain ends. Non-standard residues stand in square brackets, D forms with d. Groups on a side chain read outwards from the residue. Primed or numbered codes have the meaning given here. No end group written: not given here. *: point of attachment. PEG 40 kDa = 40 kDa polyethylene glycol attached to Cys; PEG 40 kDa″ = 40 kDa polyethylene glycol; γGlu = O=C(O)[C@H](CCC(=O)[*:2])N[*:1]; Stearoyl = CCCCCCCCCCCCCCCCCC(=O)*; Palmitoyl = CCCCCCCCCCCCCCCC(=O)*; Myristoyl = CCCCCCCCCCCCCC(=O)*; Nle = CCCC[C@H](N)C(=O)O; Octanoyl = CCCCCCCC(=O)*; Orn = NCCC[C@H](N)C(=O)O; Aib = CC(C)(N)C(=O)O

Holding throughout (assay): cell-based or functional assay
Test [1] concerns the target T1, GLP-1 receptor (UniProt P43220 24-463, limits assumed).
Test [2] deals with T2, glucagon receptor (UniProt P47871 26-477, limits assumed).
T2 sequence (P47871 26-477 limits assumed): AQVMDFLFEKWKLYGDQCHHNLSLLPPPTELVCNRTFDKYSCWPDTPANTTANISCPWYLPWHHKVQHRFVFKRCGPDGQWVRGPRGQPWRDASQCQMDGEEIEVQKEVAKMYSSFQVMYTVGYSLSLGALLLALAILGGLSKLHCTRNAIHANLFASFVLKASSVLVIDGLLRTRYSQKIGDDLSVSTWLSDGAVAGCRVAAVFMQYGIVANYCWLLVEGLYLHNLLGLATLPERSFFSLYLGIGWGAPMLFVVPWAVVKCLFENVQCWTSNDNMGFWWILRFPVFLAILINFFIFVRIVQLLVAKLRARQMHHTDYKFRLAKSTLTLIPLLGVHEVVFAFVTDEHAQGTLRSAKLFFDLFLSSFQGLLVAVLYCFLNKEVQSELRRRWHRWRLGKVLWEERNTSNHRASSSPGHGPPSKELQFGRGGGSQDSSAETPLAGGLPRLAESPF
Test [3] deals with T1, GLP-1 receptor. This is another data set of the same source.
The target in test [4] is T1, GLP-1 receptor. This is another data set of the same source.
The target in test [5] is T2, glucagon receptor. This is another data set of the same source.
Test [6] addresses T1, GLP-1 receptor. This is another data set of the same source.
In test [7] the target is T2, glucagon receptor. The source holds these as a separate data set.
In test [8] the target is T2, glucagon receptor. The source holds these as a separate data set.
Test [9] deals with T2, glucagon receptor. This is another data set of the same source.
Test [10] deals with T2, glucagon receptor. The source holds these as a separate data set.
In test [11] the target is T1, GLP-1 receptor. The source holds these as a separate data set.
The target in test [12] is T1, GLP-1 receptor. The source holds these as a separate data set.
The target of test [13] is T1, GLP-1 receptor. The source holds these as a separate data set.
The target in test [14] is T1, GLP-1 receptor. The source holds these as a separate data set.
Test [15] addresses T2, glucagon receptor. This is another data set of the same source.
Test [16] deals with T2, glucagon receptor. The source holds these as a separate data set.
Test [17] concerns the target T2, glucagon receptor. The source holds these as a separate data set.
In test [18] the target is T1, GLP-1 receptor. This is another data set of the same source.

With H[Aib]QGTFTSDK(Palmitoyl)SKYLDEQAAKEFIC(PEG 40 kDa)WLMNT-NH2 [C16 acylated Glucagon analog peptide (SEQ ID NO: 536)], the EC50 with GLP-1 receptor [1] stood at 0.0127 nM; with glucagon receptor [2], 17.4 nM; in the test with GLP-1 receptor [3] it was 0.05 nM; with GLP-1 receptor [4] it was 0.033 nM.
As for H[Aib]QGTFTSDYSKYLDEQAAKEFICWLMNT [Peptide X], in the test with glucagon receptor [5], the “% activity of native glucagon” value turned out to be 9.38%. Moreover, the “% activity of native GLP-1” value with GLP-1 receptor [6] was 202%.
Turning to H[Aib]QGTFTSDK([Trp-Palmitoyl])SKYLD[Aib]RRAQDFVC(PEG 40 kDa)WLMNT-NH2 [Glucagon (1-29a) Aib2 Lys10-Trp-C16 Aib16 Cys24-40 kD], the EC50 with glucagon receptor [7] is 0.29 nM.
H[Aib]QGTFTSDKSKYLDEQAAKEFIC(PEG 40 kDa)WLMNT-NH2 [Non-acylated Glucagon analog peptide (SEQ ID NO: 580)]: the EC50 in the test with GLP-1 receptor [4] was 0.095 nM. This lies in the picomolar range.
Consider HSQGTFTSDK([Trp-Stearoyl])SKYLDERRAKDFVQWLMNT-NH2 [E16 K20-glucagon-NH2 with K10-W-C18], for which the EC50 turned out to be 0.05 nM with glucagon receptor [8] and 0.044 nM in the test with glucagon receptor [9].
In the case of HXQGTFTSDYSKYLDERRAKDFVQWLMNTK (d-Ser at 2; Lys 30 acylated with C14; C-terminal amide) [Peptide dS2E16K20K30-C14 Gluc Amide], the EC50 came out at 3.53 nM with glucagon receptor [10] and 0.84 nM with GLP-1 receptor [11].
H[Aib]QGTFTSDK(Myristoyl)SKYLDEQAAKEFIC(PEG 40 kDa)WLMNT-NH2 [C14 acylated Glucagon analog peptide (SEQ ID NO: 535)]: the EC50 is 0.0168 nM with GLP-1 receptor [1] and 0.044 nM with GLP-1 receptor [4].
On to HXQGTFTSDYSKYLDERRAKDFVQWLMNTK (d-Ser at 2; Lys 30 acylated with C16; C-terminal amide) [Peptide dS2E16K20K30-C16 Gluc Amide], for which the EC50 came out at 4.89 nM in the test with glucagon receptor [10] and 3.05 nM with GLP-1 receptor [11].
Take HS[Nle]GTFTSDYSKYLDERRAQDFVQWLMNT-NH2 [NLeu3, E16 Gluc-NH2]: the “Percent Potency Relative to Native Ligand” value in the test with GLP-1 receptor [12] is 20.6%.
As to H[Aib]QGTFTSDK(Octanoyl)SKYLDEQAAKEFIC(PEG 40 kDa)WLMNT-NH2 [C8 acylated Glucagon analog peptide (SEQ ID NO: 534)], the EC50 came to 0.0174 nM with GLP-1 receptor [1] and 0.058 nM in the test with GLP-1 receptor [4].
On to HXQGTFTSDKSKYLDERRAKDFVQWLMNT (d-Ser at 2; Lys 10 acylated with C16; C-terminal amide) [Peptide dS2K10(C16)E16K20-Gluc Amide], for which the concentration for a half-maximal effect (EC50) in the test with glucagon receptor [10] was 0.076 nM; with GLP-1 receptor [11], 0.041 nM.
Take HSQGTFTSDK(Palmitoyl)SKYLDERRAKDFVQWLMNT-NH2 [E16 K20-glucagon-NH2 with K10-C16]: the EC50 was 0.4 nM with glucagon receptor [8], 0.09 nM in the test with GLP-1 receptor [13], 0.236 nM with glucagon receptor [9] and 0.125 nM with GLP-1 receptor [14].
For the molecule HS[Orn]GTFTSDYSKYLDERRAQDFVQWLMNT-NH2 [Orn3, E16 Gluc-NH2], the “Percent Potency Relative to Native Ligand” value in the test with GLP-1 receptor [12] is 0.1%.
H[Aib]QGTFTSDK(Palmitoyl)SKYLD[Aib]RRAQDFVQWLMNT-NH2 [Peptide 50 (SEQ ID NO: 563)] gave an EC50 with glucagon receptor [15] of 0.572 nM. In the test with glucagon receptor [16], the EC50 came to 0.052 nM and the “EC50 (20% human plasma)” value stood at 0.023 nM.

B1: Peptide 79** (SEQ ID NO: 620) (peptide)
peptide: H[Aib]QGTFTSDK([Ala-Ala-Palmitoyl])SKYLD[Aib]RRAQDFVCWLMNT-NH2
modifications: N-terminus assumed
SMILES: CCCCCCCCCCCCCCCC(=O)N[C@@H](C)C(=O)N[C@@H](C)C(=O)NCCCC[C@H](NC(=O)[C@H](CC(=O)O)NC(=O)[C@H](CO)NC(=O)[C@@H](NC(=O)[C@H](Cc1ccccc1)NC(=O)[C@@H](NC(=O)CNC(=O)[C@H](CCC(N)=O)NC(=O)C(C)(C)NC(=O)[C@@H](N)Cc1c[nH]cn1)[C@@H](C)O)[C@@H](C)O)C(=O)N[C@@H](CO)C(=O)N[C@@H](CCCCN)C(=O)N[C@@H](Cc1ccc(O)cc1)C(=O)N[C@@H](CC(C)C)C(=O)N[C@@H](CC(=O)O)C(=O)NC(C)(C)C(=O)N[C@@H](CCCNC(=N)N)C(=O)N[C@@H](CCCNC(=N)N)C(=O)N[C@@H](C)C(=O)N[C@@H](CCC(N)=O)C(=O)N[C@@H](CC(=O)O)C(=O)N[C@@H](Cc1ccccc1)C(=O)N[C@H](C(=O)N[C@@H](CS)C(=O)N[C@@H](Cc1c[nH]c2ccccc12)C(=O)N[C@@H](CC(C)C)C(=O)N[C@@H](CCSC)C(=O)N[C@@H](CC(N)=O)C(=O)N[C@H](C(N)=O)[C@@H](C)O)C(C)C
On to B1, for which the EC50 stood at 0.01 nM in the test with glucagon receptor [17] and 0.008 nM with GLP-1 receptor [18].
Regarding HXQGTFTSDKSKYLDERRAKDFVQWLMNT (d-Ser at 2; Lys 10 acylated with C14; C-terminal amide) [Peptide dS2K10(C14)E16K20-Gluc Amide], the values for the EC50 with glucagon receptor [10] and with GLP-1 receptor [11] were 0.155 nM and 0.041 nM, respectively.
With H[Aib]QGTFTSDYSKYLDEQAAKEFIC([maleimide-PEG 40 kDa″])WLMNT (lactam 16-20) [Peptide Y-PEG], in the test with glucagon receptor [5], the “% activity of native glucagon” value turned out to be 8.22% and the “EC50 (cAMP, CRE-luciferase)” value amounted to 0.667 nM. In the test with GLP-1 receptor [6], the “% activity of native GLP-1” value stood at 47.6% and the “EC50 (cAMP, CRE-luciferase)” value amounted to 0.059 nM.

B2: Peptide 80** (SEQ ID NO: 619) (peptide)
peptide: H[Aib]QGTFTSDK([γGlu-γGlu-Palmitoyl])SKYLD[Aib]RRAQDFVCWLMNT-NH2
modifications: N-terminus assumed
SMILES: CCCCCCCCCCCCCCCC(=O)N[C@@H](CCC(=O)N[C@@H](CCC(=O)NCCCC[C@H](NC(=O)[C@H](CC(=O)O)NC(=O)[C@H](CO)NC(=O)[C@@H](NC(=O)[C@H](Cc1ccccc1)NC(=O)[C@@H](NC(=O)CNC(=O)[C@H](CCC(N)=O)NC(=O)C(C)(C)NC(=O)[C@@H](N)Cc1c[nH]cn1)[C@@H](C)O)[C@@H](C)O)C(=O)N[C@@H](CO)C(=O)N[C@@H](CCCCN)C(=O)N[C@@H](Cc1ccc(O)cc1)C(=O)N[C@@H](CC(C)C)C(=O)N[C@@H](CC(=O)O)C(=O)NC(C)(C)C(=O)N[C@@H](CCCNC(=N)N)C(=O)N[C@@H](CCCNC(=N)N)C(=O)N[C@@H](C)C(=O)N[C@@H](CCC(N)=O)C(=O)N[C@@H](CC(=O)O)C(=O)N[C@@H](Cc1ccccc1)C(=O)N[C@H](C(=O)N[C@@H](CS)C(=O)N[C@@H](Cc1c[nH]c2ccccc12)C(=O)N[C@@H](CC(C)C)C(=O)N[C@@H](CCSC)C(=O)N[C@@H](CC(N)=O)C(=O)N[C@H](C(N)=O)[C@@H](C)O)C(C)C)C(=O)O)C(=O)O
Consider B2, for which the figures for the EC50 in the test with glucagon receptor [17] and with GLP-1 receptor [18] were 0.006 nM and 0.008 nM, respectively.
